# From IntAct's records for PubMed 31695625
# B1: Solute carrier family 2, facilitated glucose transporter member 9 (Homo sapiens), Q9NRM0-2 (parent)
# chain: MKLSKKDRGEDEESDSAKKKLDWSCSLLVASLAGAFGSSFLYGYNLSVVNAPTPYIKAFYNESWERRHGRPIDPDTLTLLWSVTVSIFAIGGLVGTLIVKMIGKVLGRKHTLLANNGFAISAALLMACSLQAGAFEMLIVGRFIMGIDGGVALSVLPMYLSEISPKEIRGSLGQVTAIFICIGVFTGQLLGLPELLGKESTWPYLFGVIVVPAVVQLLSLPFLPDSPRYLLLEKHNEARAVKAFQTFLGKADVSQEVEEVLAESRVQRSIRLVSVLELLRAPYVRWQVVTVIVTMACYQLCGLNAIWFYTNSIFGKAGIPPAKIPYVTLSTGGIETLAAVFSGLVIEHLGRRPLLIGGFGLMGLFFGTLTITLTLQDHAPWVPYLSIVGILAIIASFCSGPGGIPFILTGEFFQQSQRPAAFIIAGTVNWLSNFAVGLLFPFIQKSLDTYCFLVFATICITGAIYLYFVLPETKNRTYAEISQAFSKRNKAYPPEEKIDSAVTDGKINGRP
# B2: Solute carrier family 2, facilitated glucose transporter member 9 (Homo sapiens), Q9NRM0-1 (parent)
# chain: MARKQNRNSKELGLVPLTDDTSHAGPPGPGRALLECDHLRSGVPGGRRRKDWSCSLLVASLAGAFGSSFLYGYNLSVVNAPTPYIKAFYNESWERRHGRPIDPDTLTLLWSVTVSIFAIGGLVGTLIVKMIGKVLGRKHTLLANNGFAISAALLMACSLQAGAFEMLIVGRFIMGIDGGVALSVLPMYLSEISPKEIRGSLGQVTAIFICIGVFTGQLLGLPELLGKESTWPYLFGVIVVPAVVQLLSLPFLPDSPRYLLLEKHNEARAVKAFQTFLGKADVSQEVEEVLAESRVQRSIRLVSVLELLRAPYVRWQVVTVIVTMACYQLCGLNAIWFYTNSIFGKAGIPPAKIPYVTLSTGGIETLAAVFSGLVIEHLGRRPLLIGGFGLMGLFFGTLTITLTLQDHAPWVPYLSIVGILAIIASFCSGPGGIPFILTGEFFQQSQRPAAFIIAGTVNWLSNFAVGLLFPFIQKSLDTYCFLVFATICITGAIYLYFVLPETKNRTYAEISQAFSKRNKAYPPEEKIDSAVTDGKINGRP
# Variants of: B1
# Settings: with itm2b_human ITM2B
row,Variant,effect of a mutation on the interaction
1,N61Q,with no effect

# Variants of: B1
# Settings: with itm2b_human ITM2B
# Remark: another data set of the same source
row,Variant,effect of a mutation on the interaction
1,N61Q,disrupting interaction strength

# Variants of: B2
# Settings: with itm2b_human ITM2B
row,Variant,effect of a mutation on the interaction
1,N90Q,with no effect
